Results as given in patent US6727407 (University of California, dated 2004).

Molecular target: T1, GST-CCA1 (Arabidopsis thaliana, UniProt P92973 1-608)
T1 construct: Immobilized on glutathione-agarose beads; also called pGEX-CCA1 product; not shown: glutathione-S-transferase (GST) of pGEX-3X (Pharmacia)
Experiment: GST pull-down of 35S-labeled in vitro translated protein, SDS-PAGE autoradiography
Procedure: CK2 subunits and GBF4 labeled with [^35S]methionine were synthesized by coupled transcription-translation with wheat germ extract (Promega TNT). For in vitro binding, 20 µl of the reactions were added to 200 µl of binding buffer [20 mM Hepes pH 7.6, 100 mM KCl, 10% glycerol, 5 mM EDTA, 0.02% NP40, 1 mM dithiothreitol (DTT), 5 mg/ml bovine serum albumin (BSA)] followed by 10 µl of glutathione-agarose beads with bound GST or GST-CCA1 and incubated at 4° C. The beads were washed with binding buffer, then with binding buffer without BSA. Bound proteins were eluted with 1X SDS-polyacrylamide gel electrophoresis (PAGE) sample buffer and resolved by 12.5% SDS-PAGE. ^35S-labeled bands were detected by autoradiography, and quantitation was performed with a PhosphorImager (Molecular Dynamics).

T1 sequence (P92973 whole entry): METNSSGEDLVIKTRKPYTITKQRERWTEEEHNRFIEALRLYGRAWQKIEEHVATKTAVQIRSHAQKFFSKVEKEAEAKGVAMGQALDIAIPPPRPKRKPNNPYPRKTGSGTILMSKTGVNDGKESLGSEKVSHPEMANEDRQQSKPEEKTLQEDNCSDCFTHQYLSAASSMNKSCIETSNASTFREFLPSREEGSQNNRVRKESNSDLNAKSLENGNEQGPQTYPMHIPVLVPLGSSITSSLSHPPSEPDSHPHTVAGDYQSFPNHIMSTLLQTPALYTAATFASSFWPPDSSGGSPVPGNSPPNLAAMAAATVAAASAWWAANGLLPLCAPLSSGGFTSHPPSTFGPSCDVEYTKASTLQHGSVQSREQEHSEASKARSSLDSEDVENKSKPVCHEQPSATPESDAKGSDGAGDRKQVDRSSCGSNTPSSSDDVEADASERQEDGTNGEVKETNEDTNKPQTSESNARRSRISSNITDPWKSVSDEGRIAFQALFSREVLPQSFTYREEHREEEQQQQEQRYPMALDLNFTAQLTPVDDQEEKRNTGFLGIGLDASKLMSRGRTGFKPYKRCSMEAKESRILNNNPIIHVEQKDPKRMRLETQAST

B1: GBF4, a bZIP transcription factor (35S-labeled, in vitro translated) (other, UniProt P42777 1-270, looked up)
chain: MASFKLMSSSNSDLSRRNSSSASSSPSIRSSHHLRPNPHADHSRISFAYGGGVNDYTFASDSKPFEMAIDVDRSIGDRNSVNNGKSVDDVWKEIVSGEQKTIMMKEEEPEDIMTLEDFLAKAEMDEGASDEIDVKIPTERLNNDGSYTFDFPMQRHSSFQMVEGSMGGGVTRGKRGRVMMEAMDKAAAQRQKRMIKNRESAARSRERKQAYQVELETLAAKLEEENEQLLKEIEESTKERYKKLMEVLIPVDEKPRPPSRPLSRSHSLEW
modifications: [35S]methionine label
notes: Negative control
binding result: no binding
